Columns and labels:
AncSZ = assay: phosphorylation enrichment, bacterial display (enrichment ratio); higher = better substrate or ligand; peptides without Tyr show the background
EPHB1 = EPHB1 (UniProt P54762); assay: as above
EPHB2 = EPHB2 (UniProt P29323); assay: as above
FGFR1 = FGFR1 (UniProt P11362); assay: as above
FGFR3 = FGFR3 (UniProt P22607); assay: as above
Fer (mouse) = assay: as above
Fes = Fes (UniProt P07332); assay: as above
Fyn = Fyn (UniProt P06241); assay: as above
Hck = Hck (UniProt P08631); assay: as above
Jak2 = Jak2 (UniProt O60674); assay: as above
MERTK = MERTK (UniProt Q12866); assay: as above
c-Abl (mouse) = assay: as above
c-Src = assay: as above
Grb2 SH2 = Grb2 SH2 (UniProt P62993); assay: SH2 binding enrichment of the phosphorylated peptide, bacterial display (enrichment ratio); higher = better substrate or ligand; peptides without Tyr show the background
SHP2-C SH2 = assay: as above
c-Src SH2 = assay: as above
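Throughout, for SH2 binding enrichment of the phosphorylated peptide, bacterial display: peptide library displayed on the E. coli surface as eCPX fusions, selected cells deep-sequenced, score is each peptide's frequency after selection divided by its frequency in the input.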
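Throughout, for phosphorylation enrichment, bacterial display: 11-residue human phosphosite peptides and single-mutation variants displayed on the E. coli surface, counted by deep sequencing, each peptide's frequency after selection divided by its frequency in the unselected input library; frequency after pTyr selection over input frequency; kinase dosed for 20-30% of maximal phosphorylation in three min.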

Sequence of Hck (P08631 whole entry, looked up): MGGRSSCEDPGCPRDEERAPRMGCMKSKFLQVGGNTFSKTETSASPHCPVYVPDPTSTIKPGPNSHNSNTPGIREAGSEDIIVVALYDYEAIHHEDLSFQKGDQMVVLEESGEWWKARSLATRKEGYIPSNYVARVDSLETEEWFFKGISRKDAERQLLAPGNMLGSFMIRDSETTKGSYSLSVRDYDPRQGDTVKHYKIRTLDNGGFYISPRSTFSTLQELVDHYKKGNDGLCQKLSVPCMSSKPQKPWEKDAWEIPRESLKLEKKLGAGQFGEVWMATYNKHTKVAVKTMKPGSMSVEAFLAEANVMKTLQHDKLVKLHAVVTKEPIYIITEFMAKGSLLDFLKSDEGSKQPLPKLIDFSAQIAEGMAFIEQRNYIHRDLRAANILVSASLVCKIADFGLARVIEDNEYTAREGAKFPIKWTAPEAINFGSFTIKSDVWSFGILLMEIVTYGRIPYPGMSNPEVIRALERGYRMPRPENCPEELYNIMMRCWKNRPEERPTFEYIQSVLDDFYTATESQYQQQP
Sequence of Fyn (P06241 whole entry, looked up): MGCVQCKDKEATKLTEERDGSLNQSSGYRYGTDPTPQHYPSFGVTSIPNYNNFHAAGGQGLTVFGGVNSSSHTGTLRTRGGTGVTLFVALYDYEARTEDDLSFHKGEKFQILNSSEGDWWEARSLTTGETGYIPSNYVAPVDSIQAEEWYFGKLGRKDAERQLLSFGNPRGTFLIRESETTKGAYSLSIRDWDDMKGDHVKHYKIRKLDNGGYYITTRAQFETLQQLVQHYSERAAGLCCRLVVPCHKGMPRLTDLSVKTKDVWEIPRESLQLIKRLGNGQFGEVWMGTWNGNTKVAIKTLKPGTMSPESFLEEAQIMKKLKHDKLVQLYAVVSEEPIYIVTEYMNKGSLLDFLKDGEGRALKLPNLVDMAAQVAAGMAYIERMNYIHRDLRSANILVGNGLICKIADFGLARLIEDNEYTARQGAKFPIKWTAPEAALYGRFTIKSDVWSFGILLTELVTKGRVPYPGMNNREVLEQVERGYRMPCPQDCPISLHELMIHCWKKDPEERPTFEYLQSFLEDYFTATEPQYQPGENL
Sequence of Fes (P07332 whole entry, looked up): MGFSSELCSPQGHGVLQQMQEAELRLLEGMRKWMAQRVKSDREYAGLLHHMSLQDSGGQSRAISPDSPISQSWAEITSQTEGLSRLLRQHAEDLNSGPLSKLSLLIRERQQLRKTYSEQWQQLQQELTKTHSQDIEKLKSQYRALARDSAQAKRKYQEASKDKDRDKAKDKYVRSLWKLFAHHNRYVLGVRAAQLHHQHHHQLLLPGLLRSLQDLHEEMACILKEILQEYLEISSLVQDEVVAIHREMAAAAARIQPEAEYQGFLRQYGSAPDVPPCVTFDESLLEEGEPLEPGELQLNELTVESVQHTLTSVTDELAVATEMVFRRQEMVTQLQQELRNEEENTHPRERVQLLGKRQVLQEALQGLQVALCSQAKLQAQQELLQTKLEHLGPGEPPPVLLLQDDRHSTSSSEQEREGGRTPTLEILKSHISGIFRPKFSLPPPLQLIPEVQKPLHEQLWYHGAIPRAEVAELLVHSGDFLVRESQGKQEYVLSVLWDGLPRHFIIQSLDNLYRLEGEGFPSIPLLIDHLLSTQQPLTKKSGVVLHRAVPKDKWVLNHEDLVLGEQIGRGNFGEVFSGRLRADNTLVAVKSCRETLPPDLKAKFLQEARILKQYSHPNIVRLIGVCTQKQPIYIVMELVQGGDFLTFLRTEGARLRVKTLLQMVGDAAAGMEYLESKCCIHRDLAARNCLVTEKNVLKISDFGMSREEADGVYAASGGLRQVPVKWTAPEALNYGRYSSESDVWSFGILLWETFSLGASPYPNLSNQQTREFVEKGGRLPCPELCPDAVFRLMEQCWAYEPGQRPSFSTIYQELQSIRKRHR
Sequence of Jak2 (O60674 whole entry, looked up): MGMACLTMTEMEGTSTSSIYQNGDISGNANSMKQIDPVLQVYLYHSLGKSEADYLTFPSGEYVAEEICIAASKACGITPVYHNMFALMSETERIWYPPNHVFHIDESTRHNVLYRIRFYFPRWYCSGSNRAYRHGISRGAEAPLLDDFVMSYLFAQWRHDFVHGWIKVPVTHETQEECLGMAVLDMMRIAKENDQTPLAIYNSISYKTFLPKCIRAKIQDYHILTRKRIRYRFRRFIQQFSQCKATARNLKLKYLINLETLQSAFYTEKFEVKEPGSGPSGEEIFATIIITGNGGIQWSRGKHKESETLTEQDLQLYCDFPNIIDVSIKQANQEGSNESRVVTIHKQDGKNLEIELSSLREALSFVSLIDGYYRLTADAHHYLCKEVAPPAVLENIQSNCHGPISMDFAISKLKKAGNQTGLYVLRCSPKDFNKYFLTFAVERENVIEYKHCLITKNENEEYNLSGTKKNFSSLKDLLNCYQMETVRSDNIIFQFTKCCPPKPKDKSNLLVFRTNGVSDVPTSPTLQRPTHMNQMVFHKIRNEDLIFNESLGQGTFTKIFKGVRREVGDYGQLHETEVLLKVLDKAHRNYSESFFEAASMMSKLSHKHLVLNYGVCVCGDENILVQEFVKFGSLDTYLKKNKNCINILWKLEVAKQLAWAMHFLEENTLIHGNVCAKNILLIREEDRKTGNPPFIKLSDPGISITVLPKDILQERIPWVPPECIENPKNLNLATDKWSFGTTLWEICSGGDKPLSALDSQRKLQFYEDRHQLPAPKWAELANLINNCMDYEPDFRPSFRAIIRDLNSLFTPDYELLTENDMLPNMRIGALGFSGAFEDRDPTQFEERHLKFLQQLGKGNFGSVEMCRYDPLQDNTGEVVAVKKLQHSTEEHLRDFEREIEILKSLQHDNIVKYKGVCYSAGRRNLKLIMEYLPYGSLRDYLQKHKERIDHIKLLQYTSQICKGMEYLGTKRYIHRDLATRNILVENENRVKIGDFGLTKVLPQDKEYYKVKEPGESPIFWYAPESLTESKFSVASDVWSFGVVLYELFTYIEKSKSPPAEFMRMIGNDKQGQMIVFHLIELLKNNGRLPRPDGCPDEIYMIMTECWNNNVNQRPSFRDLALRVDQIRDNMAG
Sequence of FGFR1 (P11362 whole entry, looked up): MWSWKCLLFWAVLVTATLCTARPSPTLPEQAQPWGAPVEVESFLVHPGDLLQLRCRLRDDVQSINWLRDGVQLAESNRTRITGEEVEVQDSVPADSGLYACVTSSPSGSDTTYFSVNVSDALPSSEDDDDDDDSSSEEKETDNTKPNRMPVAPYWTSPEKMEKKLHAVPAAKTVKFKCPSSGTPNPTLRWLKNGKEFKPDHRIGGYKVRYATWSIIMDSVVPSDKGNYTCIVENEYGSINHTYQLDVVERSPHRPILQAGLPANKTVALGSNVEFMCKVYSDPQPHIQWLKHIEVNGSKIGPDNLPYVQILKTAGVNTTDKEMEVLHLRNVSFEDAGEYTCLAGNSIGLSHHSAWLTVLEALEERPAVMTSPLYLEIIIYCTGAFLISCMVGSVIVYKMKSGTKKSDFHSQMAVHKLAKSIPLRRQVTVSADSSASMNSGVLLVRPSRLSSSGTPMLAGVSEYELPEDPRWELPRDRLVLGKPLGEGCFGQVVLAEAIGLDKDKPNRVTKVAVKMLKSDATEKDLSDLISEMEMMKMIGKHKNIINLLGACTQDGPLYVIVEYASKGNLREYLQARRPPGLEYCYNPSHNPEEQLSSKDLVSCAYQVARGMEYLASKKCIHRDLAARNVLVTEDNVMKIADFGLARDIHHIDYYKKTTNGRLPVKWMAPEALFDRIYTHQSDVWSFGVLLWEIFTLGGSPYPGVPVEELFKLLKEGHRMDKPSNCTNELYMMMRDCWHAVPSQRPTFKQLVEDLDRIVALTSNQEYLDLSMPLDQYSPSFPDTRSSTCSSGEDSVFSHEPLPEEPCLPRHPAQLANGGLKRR
Sequence of FGFR3 (P22607 whole entry, looked up): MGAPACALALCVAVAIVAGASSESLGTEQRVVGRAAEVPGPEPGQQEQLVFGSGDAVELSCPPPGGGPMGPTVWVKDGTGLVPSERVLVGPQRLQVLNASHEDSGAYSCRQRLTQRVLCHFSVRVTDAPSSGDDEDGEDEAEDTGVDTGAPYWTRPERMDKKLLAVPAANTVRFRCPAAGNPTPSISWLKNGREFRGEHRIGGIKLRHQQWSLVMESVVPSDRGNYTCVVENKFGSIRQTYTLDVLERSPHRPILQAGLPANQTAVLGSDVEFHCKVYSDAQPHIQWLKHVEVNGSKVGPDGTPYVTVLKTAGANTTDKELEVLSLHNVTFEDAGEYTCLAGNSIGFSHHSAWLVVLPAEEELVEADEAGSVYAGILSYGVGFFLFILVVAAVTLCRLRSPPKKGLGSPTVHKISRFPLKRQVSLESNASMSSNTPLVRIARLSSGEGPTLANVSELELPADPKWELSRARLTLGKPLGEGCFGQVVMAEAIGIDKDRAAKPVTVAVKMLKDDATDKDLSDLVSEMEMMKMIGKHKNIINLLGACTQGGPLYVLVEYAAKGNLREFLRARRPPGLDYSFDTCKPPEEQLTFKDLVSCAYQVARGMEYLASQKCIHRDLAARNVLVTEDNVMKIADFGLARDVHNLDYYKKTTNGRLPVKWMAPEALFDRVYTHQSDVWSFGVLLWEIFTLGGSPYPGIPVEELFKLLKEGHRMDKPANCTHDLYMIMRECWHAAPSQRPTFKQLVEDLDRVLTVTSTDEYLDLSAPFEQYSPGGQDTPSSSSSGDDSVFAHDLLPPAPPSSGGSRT

Sequence | SH2 binding enrichment (Grb2 SH2) | SH2 binding enrichment (SHP2-C SH2) | SH2 binding enrichment (c-Src SH2) | phosphorylation enrichment (AncSZ) | phosphorylation enrichment (EPHB1) | phosphorylation enrichment (EPHB2) | phosphorylation enrichment (FGFR1) | phosphorylation enrichment (FGFR3) | phosphorylation enrichment (Fer (mouse)) | phosphorylation enrichment (Fes) | phosphorylation enrichment (Fyn) | phosphorylation enrichment (Hck) | phosphorylation enrichment (Jak2) | phosphorylation enrichment (MERTK) | phosphorylation enrichment (c-Abl (mouse)) | phosphorylation enrichment (c-Src)
DRIVNYSRASV [ATP7A_Y1459_I1464V] | 0.766 | 0.706 | 0.533 | 0.702 | 0.482 | 0.438 | 0.467 | 0.535 | 0.449 | 0.79 | 0.423 | 0.45 | 0.732 | 0.574 | 0.563 | 0.468
YQLPYYNTVPS [BMPR1A_Y458_M460T] | 9.88 | 1.1 | 8.81 | 2 | 0.642 | 0.799 | 5.46 | 3.69 | 2.1 | 0.684 | 0.92 | 1.46 | 4.98 | 5.81 | 2.34 | 3.46
AIIGIYILRDD [CDH23_Y2949] | 1.47 | 1.11 | 1.04 | 1.24 | 0.831 | 0.788 | 0.484 | 0.753 | 0.676 | 1.5 | 1.18 | 0.951 | 1.35 | 0.546 | 0.965 | 2.76
VNLVLHLSIAK [FBXO15_Y496_Y496H] | 0.652 | 0.511 | 0.351 | 1.15 | 0.583 | 0.609 | 0.476 | 0.85 | 0.799 | 1.36 | 0.492 | 0.588 | 1.36 | 0.391 | 0.88 | 0.446
ALAAPYVLFPS [CEFIP_Y1332_G1337S_YF] | 0.968 | 0.816 | 4.34 | 0.675 | 0.76 | 0.502 | 2.56 | 1.83 | 0.504 | 0.822 | 0.578 | 0.647 | 1.63 | 2.01 | 0.682 | 5
KRFRIYHLAIS [BRCA2_Y3009_T3013I_YF] | 1.81 | 1.43 | 1.56 | 0.899 | 0.612 | 0.524 | 0.644 | 0.625 | 0.48 | 0.942 | 0.55 | 0.494 | 0.86 | 0.484 | 1.38 | 0.448
ALAAPYVLYPG [CEFIP_Y1332] | 0.747 | 0.602 | 0.7 | 0.769 | 0.565 | 0.488 | 3.98 | 2.55 | 0.54 | 0.799 | 0.694 | 0.794 | 0.845 | 0.597 | 0.569 | 4.26
KVIDMYLMGCF [GABRB2_Y308_A304V] | 0.795 | 0.917 | 0.363 | 1.28 | 0.636 | 0.55 | 0.619 | 0.842 | 0.638 | 1.38 | 0.535 | 0.608 | 1.24 | 0.429 | 0.964 | 0.593
FARNSYVAGQF [G6PD_Y107_YF] | 0.81 | 0.517 | 0.442 | 0.662 | 0.321 | 0.398 | 0.503 | 0.522 | 0.36 | 0.712 | 0.489 | 0.501 | 0.522 | 0.427 | 0.442 | 0.408

Second part, led by results:

SH2 binding enrichment (Grb2 SH2) | SH2 binding enrichment (SHP2-C SH2) | SH2 binding enrichment (c-Src SH2) | Sequence | phosphorylation enrichment (AncSZ) | phosphorylation enrichment (EPHB1) | phosphorylation enrichment (EPHB2) | phosphorylation enrichment (FGFR1) | phosphorylation enrichment (FGFR3) | phosphorylation enrichment (Fer (mouse)) | phosphorylation enrichment (Fes) | phosphorylation enrichment (Fyn) | phosphorylation enrichment (Hck) | phosphorylation enrichment (Jak2) | phosphorylation enrichment (MERTK) | phosphorylation enrichment (c-Abl (mouse)) | phosphorylation enrichment (c-Src)
0.868 | 0.604 | 0.574 | EEQKKYFNAVK [SCN5A_Y1494_M1498V_YF] | 0.832 | 0.482 | 0.566 | 0.358 | 0.567 | 0.414 | 1.05 | 0.506 | 0.483 | 0.727 | 0.482 | 0.742 | 0.383
1.36 | 1.35 | 0.985 | PTTKTYFLHFD [HBA1_Y43_P45L] | 1.66 | 1.34 | 1.14 | 3.23 | 2.62 | 0.532 | 1.79 | 0.813 | 0.816 | 1.98 | 0.844 | 1.51 | 0.695
0.978 | 0.649 | 0.528 | QSVEPYTKQQL [STAT3_Y640] | 0.715 | 0.614 | 0.695 | 0.553 | 0.558 | 0.543 | 0.783 | 0.536 | 0.641 | 0.755 | 0.709 | 0.81 | 0.626
0.767 | 0.623 | 0.678 | SESSYYKSLNL [NGEF_Y289_A286S] | 0.876 | 0.503 | 0.57 | 1.01 | 0.841 | 0.624 | 0.756 | 0.657 | 0.627 | 0.852 | 0.913 | 0.561 | 0.586
0.837 | 0.782 | 0.527 | KNGSNYVVKGN [KIT_Y823_D820G] | 0.526 | 0.346 | 0.38 | 0.435 | 0.368 | 0.375 | 0.576 | 0.449 | 0.45 | 0.484 | 0.466 | 0.411 | 0.482
0.772 | 0.748 | 0.498 | LEAVSYSSRYA [RNLS_Y190] | 0.687 | 0.453 | 0.446 | 0.415 | 0.462 | 0.433 | 0.704 | 0.389 | 0.437 | 0.685 | 0.63 | 0.459 | 0.368
0.711 | 0.687 | 0.535 | QLCVSYPGGFT [PROS1_Y259_N258S_YF] | 1.12 | 0.481 | 0.546 | 0.496 | 0.892 | 0.775 | 1.47 | 0.663 | 0.682 | 1.45 | 0.578 | 1.24 | 0.658

— the supplement of paper PMC10065799, “High-throughput profiling of sequence recognition by tyrosine kinases and SH2 domains using bacterial peptide display” (eLife, 2023)
